From PMC4598761, “Co-Expression of NEU2 and GBA3 Causes a Drastic Reduction in Cytosolic Sialyl Free N-glycans in Human MKN45 Stomach Cancer Cells—Evidence for the Physical Interaction of NEU2 and GBA3” (Biomolecules, 2015) come the findings set out here.

The target of this assay is T1, His-GBA3-HA (recombinant epitope-tagged cytosolic β-glycosidase GBA3) (human, UniProt Q9H227 1-469).
T1 construct: GBA3, cytosolic β-glycosidase, human; Construct pDEST17-His-GBA3-HA; also called β-galactosidase/β-glucosidase; source: E. coli BL21(AI), purified (Ni-Sepharose 6 Fast Flow); not shown: His6, N-terminal, kept; HA, C-terminal, kept
T1 sequence (looked up): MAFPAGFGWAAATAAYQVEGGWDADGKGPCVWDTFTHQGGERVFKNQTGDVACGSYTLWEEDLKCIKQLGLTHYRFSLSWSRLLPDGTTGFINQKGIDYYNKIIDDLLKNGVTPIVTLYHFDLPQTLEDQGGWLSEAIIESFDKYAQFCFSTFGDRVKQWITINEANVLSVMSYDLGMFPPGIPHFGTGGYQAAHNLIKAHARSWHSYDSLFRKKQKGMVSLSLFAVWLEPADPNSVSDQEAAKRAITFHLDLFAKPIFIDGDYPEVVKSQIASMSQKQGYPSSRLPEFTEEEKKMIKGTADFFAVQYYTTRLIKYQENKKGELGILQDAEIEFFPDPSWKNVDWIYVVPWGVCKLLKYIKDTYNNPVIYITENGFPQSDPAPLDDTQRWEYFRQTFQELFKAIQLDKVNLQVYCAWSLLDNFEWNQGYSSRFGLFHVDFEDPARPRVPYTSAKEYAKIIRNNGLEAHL
Kind of assay: pull-down; purified recombinant proteins mixed overnight at 4 °C (1.5 mg/mL each), precipitated with 20 μL Ni-Sepharose 6 Fast Flow for 1 h at 4 °C (His-tagged protein held), washed three times with PBS, western blotting. The conditions noted are these: both partners purified. (In general: Immunoblotting shows a protein as a band on a membrane.)

B1: GST-NEU2 (recombinant cytosolic sialidase NEU2) (enzyme, human, UniProt Q9Y3R4 1-380, looked up)
chain: MASLPVLQKESVFQSGAHAYRIPALLYLPGQQSLLAFAEQRASKKDEHAELIVLRRGDYDAPTHQVQWQAQEVVAQARLDGHRSMNPCPLYDAQTGTLFLFFIAIPGQVTEQQQLQTRANVTRLCQVTSTDHGRTWSSPRDLTDAAIGPAYREWSTFAVGPGHCLQLHDRARSLVVPAYAYRKLHPIQRPIPSAFCFLSHDHGRTWARGHFVAQDTLECQVAEVETGEQRVVTLNARSHLRARVQAQSTNDGLDFQESQLVKKLVEPPPQGCQGSVISFPSPRSGPGSPAQWLLYTHPTHSWQRADLGAYLNPRPPAPEAWSEPVLLAKGSCAYSDLQSMGTGPDGSPLFGCLYEANDYEEIVFLMFTLKQAFPAEYLPQ
notes: NEU2, cytosolic sialidase; source: E. coli BL21(DE3), purified (Glutathione Sepharose 4B)
Regarding B1, the binding result is listed as “binds”.
